# Results taken from the supplement of paper PMC10567573.
# B1: VAMP4 (parent)
# chain: FLRGPSGPRFGPRNDKIKHVQNQV
# B2: MCOLN1 (parent)
# chain: EEEDLRRRLKYFFMSPCDKFRAKG
# Variants of: B1
# Assay: protein stability index of a GFP-peptide fusion (GPS, HEK-293T) (PSI 1-6); higher = more stable
# Conditions: c terminus: a fixed tail appended
# 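Further: lentivirally expressed fusions sorted by FACS into six bins by GFP to DsRed ratio, PSI derived from sequencing read proportions per bin multiplied by bin number.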
row,Variant,protein stability index
1,FLDGPSGPRFGPRNDKIKHVQNQV,3.29
2,FLNGPSGPRFGPRNDKIKHVQNQV,2.93
3,FLEGPSGPRFGPRNDKIKHVQNQV,3.56
4,FLKGPSGPRFGPRNDKIKHVQNQV,3.04
5,FLMGPSGPRFGPRNDKIKHVQNQV,2.04
6,FLVGPSGPRFGPRNDKIKHVQNQV,2.08
7,FLWGPSGPRFGPRNDKIKHVQNQV,2.02
8,FLYGPSGPRFGPRNDKIKHVQNQV,1.99
9,FLPGPSGPRFGPRNDKIKHVQNQV,2.58
10,FLIGPSGPRFGPRNDKIKHVQNQV,2.24
11,FLGGPSGPRFGPRNDKIKHVQNQV,2.74
12,FLLGPSGPRFGPRNDKIKHVQNQV,2.42
13,FLFGPSGPRFGPRNDKIKHVQNQV,1.96
14,FLHGPSGPRFGPRNDKIKHVQNQV,3.17
15,FLCGPSGPRFGPRNDKIKHVQNQV,2.77
16,FLSGPSGPRFGPRNDKIKHVQNQV,3.3
17,FLTGPSGPRFGPRNDKIKHVQNQV,3.25
18,FLAGPSGPRFGPRNDKIKHVQNQV,2.54
19,FLQGPSGPRFGPRNDKIKHVQNQV,2.6
20,FLRGPSGTRFGPRNDKIKHVQNQV,2.71
21,FLRGPSGSRFGPRNDKIKHVQNQV,2.58
22,FLRGPSGRRFGPRNDKIKHVQNQV,2.35
23,FLRGPSGWRFGPRNDKIKHVQNQV,1.79
24,FLRGPSGNRFGPRNDKIKHVQNQV,2.63
25,FLRGPSGKRFGPRNDKIKHVQNQV,2.07
26,FLRGPSGERFGPRNDKIKHVQNQV,3.19

row,Variant,protein stability index
1,FLRGPSGFRFGPRNDKIKHVQNQV,2.28
2,FLRGPSGMRFGPRNDKIKHVQNQV,2.53
3,FLRGPSGYRFGPRNDKIKHVQNQV,2.47
4,FLRGPSGQRFGPRNDKIKHVQNQV,1.96
5,FLRGPSGDRFGPRNDKIKHVQNQV,3.01
6,FLRGPSGCRFGPRNDKIKHVQNQV,2.44
7,FLRGPSGGRFGPRNDKIKHVQNQV,2.41
8,FLRGPSGHRFGPRNDKIKHVQNQV,2.52
9,FLRGPSGARFGPRNDKIKHVQNQV,2.62
10,FLRGPSGLRFGPRNDKIKHVQNQV,1.61
11,FLRGPSGIRFGPRNDKIKHVQNQV,2.53
12,FLRGPSGVRFGPRNDKIKHVQNQV,2.54
13,FLRGPSGPTFGPRNDKIKHVQNQV,2.75
14,FLRGPSGPEFGPRNDKIKHVQNQV,3
15,FLRGPSGPCFGPRNDKIKHVQNQV,1.76
16,FLRGPSGPKFGPRNDKIKHVQNQV,3.87
17,FLRGPSGPWFGPRNDKIKHVQNQV,2.93
18,FLRGPSGPDFGPRNDKIKHVQNQV,2.91
19,FLRGPSGPAFGPRNDKIKHVQNQV,2
20,FLRGPSGPQFGPRNDKIKHVQNQV,2.93
21,FLRGPSGPLFGPRNDKIKHVQNQV,2.06
22,FLRGPSGPYFGPRNDKIKHVQNQV,2.04
23,FLRGPSGPPFGPRNDKIKHVQNQV,2.49
24,FLRGPSGPSFGPRNDKIKHVQNQV,2.69
25,FLRGPSGPIFGPRNDKIKHVQNQV,2.17
26,FLRGPSGPGFGPRNDKIKHVQNQV,2.49

row,Variant,protein stability index
1,FLRGPSGPHFGPRNDKIKHVQNQV,2.28
2,FLRGPSGPFFGPRNDKIKHVQNQV,1.9
3,FLRGPSGPNFGPRNDKIKHVQNQV,3.01
4,FLRGPSGPVFGPRNDKIKHVQNQV,2.18
5,FLRGPSGPMFGPRNDKIKHVQNQV,2.46
6,VLRGPSGPRFGPRNDKIKHVQNQV,3.43
7,MLRGPSGPRFGPRNDKIKHVQNQV,3.27
8,SLRGPSGPRFGPRNDKIKHVQNQV,3.71
9,ALRGPSGPRFGPRNDKIKHVQNQV,3.87
10,NLRGPSGPRFGPRNDKIKHVQNQV,3.44
11,CLRGPSGPRFGPRNDKIKHVQNQV,2.85
12,ELRGPSGPRFGPRNDKIKHVQNQV,3.6
13,PLRGPSGPRFGPRNDKIKHVQNQV,4.07
14,WLRGPSGPRFGPRNDKIKHVQNQV,2.61
15,YLRGPSGPRFGPRNDKIKHVQNQV,2.52
16,GLRGPSGPRFGPRNDKIKHVQNQV,3.65
17,RLRGPSGPRFGPRNDKIKHVQNQV,3.35
18,DLRGPSGPRFGPRNDKIKHVQNQV,3.75
19,TLRGPSGPRFGPRNDKIKHVQNQV,3.79
20,HLRGPSGPRFGPRNDKIKHVQNQV,3.22
21,ILRGPSGPRFGPRNDKIKHVQNQV,3.38
22,QLRGPSGPRFGPRNDKIKHVQNQV,3.68
23,KLRGPSGPRFGPRNDKIKHVQNQV,3.35
24,LLRGPSGPRFGPRNDKIKHVQNQV,3.26
25,FLRGPMGPRFGPRNDKIKHVQNQV,2.86
26,FLRGPFGPRFGPRNDKIKHVQNQV,2.64

row,Variant,protein stability index
1,FLRGPYGPRFGPRNDKIKHVQNQV,2.11
2,FLRGPQGPRFGPRNDKIKHVQNQV,2.56
3,FLRGPHGPRFGPRNDKIKHVQNQV,2.45
4,FLRGPVGPRFGPRNDKIKHVQNQV,2.12
5,FLRGPAGPRFGPRNDKIKHVQNQV,2.76
6,FLRGPWGPRFGPRNDKIKHVQNQV,1.29
7,FLRGPNGPRFGPRNDKIKHVQNQV,2.43
8,FLRGPIGPRFGPRNDKIKHVQNQV,1.97
9,FLRGPCGPRFGPRNDKIKHVQNQV,2.03
10,FLRGPLGPRFGPRNDKIKHVQNQV,1.54
11,FLRGPRGPRFGPRNDKIKHVQNQV,2.92
12,FLRGPTGPRFGPRNDKIKHVQNQV,2.77
13,FLRGPEGPRFGPRNDKIKHVQNQV,3.94
14,FLRGPGGPRFGPRNDKIKHVQNQV,2.49
15,FLRGPKGPRFGPRNDKIKHVQNQV,2.65
16,FLRGPDGPRFGPRNDKIKHVQNQV,2.95
17,FLRGPPGPRFGPRNDKIKHVQNQV,2.79
18,FLRGDSGPRFGPRNDKIKHVQNQV,3.36
19,FLRGISGPRFGPRNDKIKHVQNQV,2.17
20,FLRGYSGPRFGPRNDKIKHVQNQV,2.04
21,FLRGVSGPRFGPRNDKIKHVQNQV,2.29
22,FLRGMSGPRFGPRNDKIKHVQNQV,2.37
23,FLRGGSGPRFGPRNDKIKHVQNQV,2.43
24,FLRGRSGPRFGPRNDKIKHVQNQV,2.72
25,FLRGHSGPRFGPRNDKIKHVQNQV,3.3
26,FLRGCSGPRFGPRNDKIKHVQNQV,2.48

row,Variant,protein stability index
1,FLRGFSGPRFGPRNDKIKHVQNQV,2.29
2,FLRGWSGPRFGPRNDKIKHVQNQV,1.55
3,FLRGKSGPRFGPRNDKIKHVQNQV,2.95
4,FLRGSSGPRFGPRNDKIKHVQNQV,2.96
5,FLRGNSGPRFGPRNDKIKHVQNQV,2.94
6,FLRGESGPRFGPRNDKIKHVQNQV,3.15
7,FLRGASGPRFGPRNDKIKHVQNQV,2.79
8,FLRGTSGPRFGPRNDKIKHVQNQV,2.86
9,FLRGQSGPRFGPRNDKIKHVQNQV,2.98
10,FLRGLSGPRFGPRNDKIKHVQNQV,2.59
11,FLRGPSGPRAGPRNDKIKHVQNQV,2.72
12,FLRGPSGPREGPRNDKIKHVQNQV,3.29
13,FLRGPSGPRHGPRNDKIKHVQNQV,3.07
14,FLRGPSGPRDGPRNDKIKHVQNQV,3.15
15,FLRGPSGPRGGPRNDKIKHVQNQV,2.89
16,FLRGPSGPRCGPRNDKIKHVQNQV,2.53
17,FLRPPSGPRFGPRNDKIKHVQNQV,3.12
18,FLRFPSGPRFGPRNDKIKHVQNQV,2.47
19,FLRWPSGPRFGPRNDKIKHVQNQV,1.96
20,FLRTPSGPRFGPRNDKIKHVQNQV,3.17
21,FLRKPSGPRFGPRNDKIKHVQNQV,2.82
22,FLRYPSGPRFGPRNDKIKHVQNQV,2.24
23,FLRSPSGPRFGPRNDKIKHVQNQV,3.06
24,FLRIPSGPRFGPRNDKIKHVQNQV,2.05
25,FLRHPSGPRFGPRNDKIKHVQNQV,2.85
26,FLRMPSGPRFGPRNDKIKHVQNQV,2.57

row,Variant,protein stability index
1,FLRLPSGPRFGPRNDKIKHVQNQV,2.59
2,FLREPSGPRFGPRNDKIKHVQNQV,3.17
3,FLRNPSGPRFGPRNDKIKHVQNQV,3.08
4,FLRDPSGPRFGPRNDKIKHVQNQV,2.99
5,FLRRPSGPRFGPRNDKIKHVQNQV,3.22
6,FLRQPSGPRFGPRNDKIKHVQNQV,3.2
7,FLRAPSGPRFGPRNDKIKHVQNQV,3.07
8,FLRCPSGPRFGPRNDKIKHVQNQV,2.24
9,FLRVPSGPRFGPRNDKIKHVQNQV,2.6
10,FLRGPSPPRFGPRNDKIKHVQNQV,3.24
11,FLRGPSHPRFGPRNDKIKHVQNQV,2.86
12,FLRGPSLPRFGPRNDKIKHVQNQV,2.37
13,FLRGPSAPRFGPRNDKIKHVQNQV,2.69
14,FLRGPSNPRFGPRNDKIKHVQNQV,2.74
15,FLRGPSDPRFGPRNDKIKHVQNQV,2.44
16,FLRGPSKPRFGPRNDKIKHVQNQV,2.32
17,FLRGPSIPRFGPRNDKIKHVQNQV,3.02
18,FLRGPSVPRFGPRNDKIKHVQNQV,2.44
19,FLRGPSYPRFGPRNDKIKHVQNQV,1.96
20,FLRGPSQPRFGPRNDKIKHVQNQV,2.68
21,FLRGPSFPRFGPRNDKIKHVQNQV,1.85
22,FLRGPSSPRFGPRNDKIKHVQNQV,2.77
23,FLRGPSEPRFGPRNDKIKHVQNQV,2.79
24,FLRGPSTPRFGPRNDKIKHVQNQV,2.66
25,FLRGPSCPRFGPRNDKIKHVQNQV,2.94
26,FLRGPSRPRFGPRNDKIKHVQNQV,1.71

row,Variant,protein stability index
1,FLRGPSMPRFGPRNDKIKHVQNQV,2.24
2,FQRGPSGPRFGPRNDKIKHVQNQV,2.73
3,FCRGPSGPRFGPRNDKIKHVQNQV,2.11
4,FFRGPSGPRFGPRNDKIKHVQNQV,3
5,FIRGPSGPRFGPRNDKIKHVQNQV,1.97
6,FDRGPSGPRFGPRNDKIKHVQNQV,3.08
7,FSRGPSGPRFGPRNDKIKHVQNQV,3.37
8,FTRGPSGPRFGPRNDKIKHVQNQV,2.99
9,FGRGPSGPRFGPRNDKIKHVQNQV,2.87
10,FERGPSGPRFGPRNDKIKHVQNQV,3.71
11,FHRGPSGPRFGPRNDKIKHVQNQV,1.95
12,FPRGPSGPRFGPRNDKIKHVQNQV,3.18
13,FNRGPSGPRFGPRNDKIKHVQNQV,2.69
14,FVRGPSGPRFGPRNDKIKHVQNQV,1.48
15,FKRGPSGPRFGPRNDKIKHVQNQV,3.21
16,FARGPSGPRFGPRNDKIKHVQNQV,2.48
17,FYRGPSGPRFGPRNDKIKHVQNQV,2.61
18,FMRGPSGPRFGPRNDKIKHVQNQV,2.99
19,FRRGPSGPRFGPRNDKIKHVQNQV,3.43
20,FWRGPSGPRFGPRNDKIKHVQNQV,2.9

# Variants of: B2
# Assay: as above
# Conditions: c terminus: a fixed tail appended
row,Variant,protein stability index
1,EEEDLRRRLKYFFMSPCDKFRAKT,2.52
2,EEEDLRRRLKYFFMSPCDKFRAKK,3.11
3,EEEDLRRRLKYFFMSPCDKFRAKP,2.4
4,EEEDLRRRLKYFFMSPCDKFRAKW,1.33
5,EEEDLRRRLKYFFMSPCDKFRAKM,2.29
6,EEEDLRRRLKYFFMSPCDKFRAKN,2.35
7,EEEDLRRRLKYFFMSPCDKFRAKL,2.55
8,EEEDLRRRLKYFFMSPCDKFRAKY,1.78
9,EEEDLRRRLKYFFMSPCDKFRAKS,2.57
10,EEEDLRRRLKYFFMSPCDKFRAKR,1.73
11,EEEDLRRRLKYFFMSPCDKFRAKV,2.29
12,EEEDLRRRLKYFFMSPCDKFRAKQ,4.48
